# Measured values reported in patent publication US5622930A, “C1 inhibitor muteins and uses thereof” (CLB, priority 1991, dated 1997).
# Positions count from the first letter of the chain named.
# B1: P5 -leu:P3 -leu: C1 inhibitor mutein with Leu at position 440 (P5) and Leu at position 442 (P3) (protein, UniProt P05155 23-500, looked up, variant I440L V442L)
# Plasma protease C1 inhibitor: NPNATSSSSQDPESLQDRGEGKVATTVISKMLFVEPILEVSSLPTTNSTTNSATKITANTTDEPTTQPTTEPTTQPTIQPTQPTTQLPTDSPTQPTTGSFCPGPVTLCSDLESHSTEAVLGDALVDFSLKLYHAFSAMKKVETNMAFSPFSIASLLTQVLLGAGENTKTNLESILSYPKDFTCVHQALKGFTTKGVTSVSQIFHSPDLAIRDTFVNASRTLYSSSPRVLSNNSDANLELINTWVAKNTNNKISRLLDSLPSDTRLVLLNAIYLSAKWKTTFDPKKTRMEPFHFKNSVIKVPMMNSKKYPVAHFIDQTLKAKVGQLQLSHNLSLVILVPQNLKHRLEDMEQALSPSVFKAIMEKLEMSKFQPTLLTLPRIKVTTSQDMLSIMEKLEFFDFSYDLNLCGLTEDPDLQVSAMQHQTVLELTETGVEAAAASALSLARTLLVFEVQQPFLFVLWDQQHKFPVFMGRVYDPRA
# B2: P5 -leu:P3 -ala: C1 inhibitor mutein with Leu at position 440 (P5) and Ala at position 442 (P3) (protein, UniProt P05155 23-500, looked up, variant I440L V442A)
# Plasma protease C1 inhibitor: B1 Plasma protease C1 inhibitor with L442A
# B3: P3-arg: C1 inhibitor mutein with Arg substituted for Val at position 442 (P3) (protein, UniProt P05155 23-500, looked up, variant V442R)
# Plasma protease C1 inhibitor: B1 Plasma protease C1 inhibitor with L440I, L442R
# B4: wild-type: wild type C1 inhibitor, plasma glycoprotein serine protease inhibitor with isoleucine and valine at positions 440 and 442 (protein, UniProt P05155 23-500, looked up)
# Plasma protease C1 inhibitor: B1 Plasma protease C1 inhibitor with L440I, L442V
# B5: P3-gly: C1 inhibitor mutein with Gly substituted for Val at position 442 (P3) (protein, UniProt P05155 23-500, looked up, variant V442G)
# Plasma protease C1 inhibitor: B1 Plasma protease C1 inhibitor with L440I, L442G
# B6: P3-leu: C1 inhibitor mutein with Leu substituted for Val at position 442 (P3) (protein, UniProt P05155 23-500, looked up, variant V442L)
# Plasma protease C1 inhibitor: B1 Plasma protease C1 inhibitor with L440I
# B7: P3-thr: C1 inhibitor mutein with Thr substituted for Val at position 442 (P3) (protein, UniProt P05155 23-500, looked up, variant V442T)
# Plasma protease C1 inhibitor: B1 Plasma protease C1 inhibitor with L440I, L442T
# B8: P3-ala: C1 inhibitor mutein with Ala substituted for Val at position 442 (P3) (protein, UniProt P05155 23-500, looked up, variant V442A)
# Plasma protease C1 inhibitor: B1 Plasma protease C1 inhibitor with L440I, L442A
# Tested on: HNE
# Assay: inactivation of C1 inhibitor muteins by elastase (protease sensitivity)
# Assay type: biochemical
# Conditions: neutrophil elastase as the source of protease; compared to wild type C1 inhibitor
# Description: (§1) FIG. 2 presents a generalized assay screening format for determining both the inhibitory (complex formation) or protease sensitivity (inactivation) of the C1 muteins. The latter measures inactivation of the C1 inhibitor muteins by non-target proteases. This procedure is also described by Eldering et al., 1988, in J. of Biological Chem., 263: 11776. Modifications of these methods are also known in the art.
# Using similar approaches, the non-target protease sensitivity of the C1 inhibitor muteins may be determined. Numerous assays may be employed that measure the amount of intact C1 inhibitor mutein, or fragments that are derived from the muteins, remaining after exposure to protease. […] A solid phase assay is preferred whereby C1 inhibitor muteins are reacted with non-target protease bound to a solid matrix and the amount of proteolysis of the muteins measured by determining the amount of intact mutein remaining, or preferably by detecting fragments of the mutein.
# An exemplary non-target protease that cleaves C1 is neutrophil elastase. Thus, this enzyme may be coupled to CNBr treated Sepharose 4B, and incubated with a C1 inhibitor mutein, and the presence of proteolytically cleaved C1 mutein monitored using a number of techniques. […] Subsequently, the amount of bound cleaved C1 inhibitor can be determined using a second radiolabelled antibody that recognizes the cleaved molecule. […]
row,Molecule,susceptibility to inactivation
1,B1,significantly reduced susceptibility to inactivation
2,B2,significantly reduced susceptibility to inactivation

# Tested on: C1s
# Assay: radioimmune assay of complex formation of C1 inhibitor muteins with solid phase C1s
# Assay type: binding
# Conditions: muteins altered only at P3 (position 442, substituted for Val), FIG. 3
# Description: as §1
# Generally, inhibitor activity of C1 muteins may be determined by measuring complex formation between the C1 inhibitor and a substrate. The preferred substrates are, of course, C1s, Kallikrein, B-12a, and plasmin. The C1 inhibitor, or C1 inhibitor muteins, inhibit the protease activity of the substrate by forming a covalent bond with the substrate. These molecules were purified by techniques known in the art, or as described by Liebermann, H., etal., 1984, J. Mol. Biol., 177: 531 and Nuijens, J.,et al., 1987, Immunology, 61: 387.
# The preferred assay is a radioimmune assay based on the observation that functional C1 inhibitor muteins bind to activated target substrate, such as C1s. The assay can be performed in several ways, but preferably purified activated C1s is coupled to a solid matrix, preferably Sepharose 4B via cyanogen bromide as is known in the art. Coupled C1s is incubated in an appropriately buffered solution containing, if desired, a small amount of detergent, preferably Tween-20. The latter is used at a concentration of about 0.1% (w/v). The capacity of the C1 inhibitor muteins to complex with the target substrate can be detected using anti-C1 inhibitor mutein antibody. Alternatively, a radiolabelled second antibody can be used to detect the bound first antibody. The antibody may be polyclonal or monoclonal and is incubated for a sufficient time to permit detectible binding of the antibody to the C1 inhibitor to occur. After the appropriate washing steps are conducted whereby non-specifically bound radiolabelled antibody is separated from antibody bound to C1 inhibitor muteins, the amount of radioactivity associated with the latter is determined. In this way, and incorporating the appropriate controls in the assay scheme, the inhibitory capacity of the C1 muteins is determined.
# The general procedures for determining both the inhibitory or non-target protease sensitivity of the C1 inhibitor muteins are shown in FIG. 2. The procedures involving C1s will be described briefly, the procedures for the other substrates is similar with modifications as noted by Eldering, 1988, J. Biological Chem., 263: 11776, and as shown by Nuijens et al., above.
# As mentioned above, the radioimmune assay to determine the C1 inhibitor activity of the various muteins is based on the observation that functional C1 inhibitor mutein will bind to activated C1s. Thus, purified activated C1s is coupled to CNBr Sepharose 4B and suspended in phosphate-buffered saline, pH 7.4 10 mM EDTA, and 0.1% (w/v) Tween-20. Next, 0.3 ml of this mixture containing 1.5 μg of activated C1s is incubated with various dilutions of the C1 inhibitor muteins for 5 hours. The Sepharose 4B beads are collected, extensively washed, and complexed C1 inhibitor mutein incubated (>4hours) with ^125 I-polyclonal anti-C1 antibody. The antibody is described by Hack, et al., above. The Sepharose beads are washed, and bound radioactivity determined using a LKB 1260 multigamma II gamma counter.
row,Molecule,"complex formation (inhibitory activity), order among P3 muteins"
1,B3,Arg=Gly<Ala<Leu<wild-type=Thr
2,B4,Arg=Gly<Ala<Leu<wild-type=Thr
3,B5,Arg=Gly<Ala<Leu<wild-type=Thr
4,B6,Arg=Gly<Ala<Leu<wild-type=Thr
5,B7,Arg=Gly<Ala<Leu<wild-type=Thr
6,B8,Arg=Gly<Ala<Leu<wild-type=Thr
